Test results taken from publication PMC8809985, “Preparation and characterization of a fully human monoclonal antibody specific for human tumor necrosis factor alpha” (Bioengineered, 2021).
Where “and” joins values, the source holds several entries; their conditions need not be identical. Equal entries are not always repeated.

Target: recombinant human tumor necrosis factor alpha (Homo sapiens, UniProt P01375)
Assay: cell-based or functional assay

Sequence of recombinant human tumor necrosis factor alpha (P01375 77-233): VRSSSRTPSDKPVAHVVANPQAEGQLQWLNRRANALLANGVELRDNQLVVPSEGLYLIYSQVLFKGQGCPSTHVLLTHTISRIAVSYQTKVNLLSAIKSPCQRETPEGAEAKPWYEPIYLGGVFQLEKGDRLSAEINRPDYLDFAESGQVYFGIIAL

B1: Haidalimumab (antibody, V domains shown)
VH: EVQLVESGGGLVQPGGSLRLSCAASGFPFSNHWMNWVRQAPGKGLEWVGEIRSKSMNSATHYAESVKGRFTISRDDSKNSLYLQMNSLKTEDTAVYYCARNYYGSTYDHWGQGTLVTVSS
VL: EIVLTQSPDFQSVTPKEKVTITCRASQFVGYSIHWYQQKPDQSPKLLIKYASESRSGVPSRFSGSGSGTDFTLTINSLEAEDAATYYCQQSHSWHFTFGQGTKLEIK
- EC50 of neutralisation of the cytotoxicity of rhTNFα (1 ng/mL, with actinomycin D 2.5 μg/mL) on L929 cells, MTT; one of three antibody batches: 0.0195 µg/mL and 0.018 µg/mL and 0.0158 µg/mL
